This passage reports Km, kcat and kcat/Km results from article PMC4116150.

Common to all, as to assay: purified protein
The test system of data set [1] is CC(C)(COP(=O)(O)OP(=O)(O)OC[C@H]1O[C@@H](n2cnc3c(N)ncnc32)[C@H](O)[C@@H]1OP(=O)(O)O)[C@@H](O)C(=O)NCCC(=O)NCCSC(=O)c1cc(O)c2ccccc2c1O. The following applies: 50 mM K+HEPES pH 7.5, 1 mM DTNB, 25 °C.
Data set [2] deals with CC(C)(COP(=O)(O)OP(=O)(O)OC[C@H]1O[C@@H](n2cnc3c(N)ncnc32)[C@H](O)[C@@H]1OP(=O)(O)O)[C@@H](O)C(=O)NCCC(=O)NCCSC(=O)c1ccccc1. The following applies: 50 mM K+HEPES pH 7.5, 1 mM DTNB, 25 °C.
For data set [3], the system named is CCCCCCCCCCCC(=O)SCCNC(=O)CCNC(=O)[C@H](O)C(C)(C)COP(=O)(O)OP(=O)(O)OC[C@H]1O[C@@H](n2cnc3c(N)ncnc32)[C@H](O)[C@@H]1OP(=O)(O)O. The following applies: 50 mM K+HEPES pH 7.5, 1 mM DTNB, 25 °C.
Substrate in data set [4]: CC(C)(COP(=O)(O)OP(=O)(O)OC[C@H]1O[C@@H](n2cnc3c(N)ncnc32)[C@H](O)[C@@H]1OP(=O)(O)O)[C@@H](O)C(=O)NCCC(=O)NCCSC(=O)/C=C/c1ccc(O)cc1
Conditions: 50 mM K+HEPES pH 7.5, 1 mM DTNB, 25 °C.

Substrate in data set [5]: CC(C)(COP(=O)(O)OP(=O)(O)OC[C@H]1O[C@@H](n2cnc3c(N)ncnc32)[C@H](O)[C@@H]1OP(=O)(O)O)[C@@H](O)C(=O)NCCC(=O)NCCSC(=O)c1cc(O)c2ccccc2c1O
The following applies: 50 mM K+HEPES pH 7.5, 1 mM DTNB, 25 °C. This is another data set of the same source.

Substrate in data set [6]: CCCCCCCC/C=C\CCCCCCCC(=O)SCCNC(=O)CCNC(=O)[C@H](O)C(C)(C)COP(=O)(O)OP(=O)(O)OC[C@H]1O[C@@H](n2cnc3c(N)ncnc32)[C@H](O)[C@@H]1OP(=O)(O)O
The following applies: 50 mM K+HEPES pH 7.5, 1 mM DTNB, 25 °C.

Substrate in data set [7]: CCCCCCCCCCCCCC(=O)SCCNC(=O)CCNC(=O)[C@H](O)C(C)(C)COP(=O)(O)OP(=O)(O)OC[C@H]1O[C@@H](n2cnc3c(N)ncnc32)[C@H](O)[C@@H]1OP(=O)(O)O
The following applies: 50 mM K+HEPES pH 7.5, 1 mM DTNB, 25 °C.

Substrate in data set [8]: CC(C(=O)O)C(=O)SCCNC(=O)CCNC(=O)[C@H](O)C(C)(C)COP(=O)(O)OP(=O)(O)OC[C@H]1O[C@@H](n2cnc3c(N)ncnc32)[C@H](O)[C@@H]1OP(=O)(O)O
The following applies: 50 mM K+HEPES pH 7.5, 1 mM DTNB, 25 °C.

Substrate in data set [9]: CC(C)(COP(=O)(O)OP(=O)(O)OC[C@H]1O[C@@H](n2cnc3c(N)ncnc32)[C@H](O)[C@@H]1OP(=O)(O)O)[C@@H](O)C(=O)NCCC(=O)NCCSC(=O)c1ccc(O)cc1
The following applies: 50 mM K+HEPES pH 7.5, 25 °C.

Substrate in data set [10]: CC(C)(COP(=O)(O)OP(=O)(O)OC[C@H]1O[C@@H](n2cnc3c(N)ncnc32)[C@H](O)[C@@H]1OP(=O)(O)O)[C@@H](O)C(=O)NCCC(=O)NCCSC(=O)c1ccccc1
Conditions: 50 mM K+HEPES pH 7.5, 1 mM DTNB, 25 °C. The source holds these as a separate data set.

Substrate in data set [11]: CC(C)=CC(=O)SCCNC(=O)CCNC(=O)[C@H](O)C(C)(C)COP(=O)(O)OP(=O)(O)OC[C@H]1O[C@@H](n2cnc3c(N)ncnc32)[C@H](O)[C@@H]1OP(=O)(O)O
The following applies: 50 mM K+HEPES pH 7.5, 1 mM DTNB, 25 °C.

Substrate in data set [12]: CCC(=O)SCCNC(=O)CCNC(=O)[C@H](O)C(C)(C)COP(=O)(O)OP(=O)(O)OC[C@H]1O[C@@H](n2cnc3c(N)ncnc32)[C@H](O)[C@@H]1OP(=O)(O)O
Conditions: 50 mM K+HEPES pH 7.5, 1 mM DTNB, 25 °C.

Substrate in data set [13]: CCCCCC(=O)SCCNC(=O)CCNC(=O)[C@H](O)C(C)(C)COP(=O)(O)OP(=O)(O)OC[C@H]1O[C@@H](n2cnc3c(N)ncnc32)[C@H](O)[C@@H]1OP(=O)(O)O
Conditions: 50 mM K+HEPES pH 7.5, 1 mM DTNB, 25 °C.

Substrate in data set [14]: CCCCCCCCCCCC(=O)SCCNC(=O)CCNC(=O)[C@H](O)C(C)(C)COP(=O)(O)OP(=O)(O)OC[C@H]1O[C@@H](n2cnc3c(N)ncnc32)[C@H](O)[C@@H]1OP(=O)(O)O
The following applies: 50 mM K+HEPES pH 7.5, 1 mM DTNB, 25 °C. The source holds these as a separate data set.

Substrate in data set [15]: CCCCCCCCCCCCCCCC(=O)SCCNC(=O)CCNC(=O)[C@H](O)C(C)(C)COP(=O)(O)OP(=O)(O)OC[C@H]1O[C@@H](n2cnc3c(N)ncnc32)[C@H](O)[C@@H]1OP(=O)(O)O
The following applies: 50 mM K+HEPES pH 7.5, 1 mM DTNB, 25 °C.

Substrate in data set [16]: CCCCCCCCCCCC(=O)SCCNC(=O)CCNC(=O)[C@H](O)C(C)(C)COP(=O)(O)OP(=O)(O)OC[C@H]1O[C@@H](n2cnc3c(N)ncnc32)[C@H](O)[C@@H]1OP(=O)(O)O
The class given is biochemical, Escherichia coli. Conditions: 50 mM K+HEPES pH 7.5, 1 mM DTNB, 25 °C.

As usually defined, the Km is the substrate concentration at which the rate is half of its maximum. Usually kcat stands for the maximal rate divided by the concentration of active sites. As usually defined, the kcat/Km is the turnover number divided by the Michaelis constant.

Residue numbers refer to the chain shown, from its start. Names and notes keep the numbering of the source.

As for YbdB (Escherichia coli K-12; M68V), the Km in data set [1] was determined as 5.9 ± 0.6 µM; in [2], 24 ± 2 µM; in data set [3] it was 10.4 ± 0.3 µM. For the same molecule, the kcat in data set [1] was found to be 0.16 ± 0.02 s⁻¹; in data set [2], 1.8 ± 0.1 s⁻¹; in data set [3], 0.046 ± 0.004 s⁻¹. In addition, the kcat/Km in data set [1] is 27000 M⁻¹ s⁻¹; in data set [2], 75000 M⁻¹ s⁻¹; in [3] it was 4500 M⁻¹ s⁻¹.

B1: YbdB (Escherichia coli K-12) (protein)
chain: MIWKRHLTLDELNATSDNTMVAHLGIVYTRLGDDVLEAEMPVDTRTHQPFGLLHGGASAALAETLGSMAGFMMTRDGQCVVGTELNATHHRPVSEGKVRGVCQPLHLGRQNQSWEIVVFDEQGRRCCTCRLGTAVLG
In the case of B1, the Km in the data set “purified protein [4]” turned out to be 10 ± 1 µM; in the data set “purified protein [5]” it was 17 ± 1 µM; in “purified protein [6]”, 13 ± 2 µM; in “purified protein [7]”, 11 ± 1 µM. Besides, the turnover number (kcat) in the data set “purified protein [4]” worked out at 0.82 ± 0.02 s⁻¹; in the data set “purified protein [5]”, 0.0093 ± 0.0002 s⁻¹; in “purified protein [6]”, 0.03 ± 0.002 s⁻¹; in “purified protein [7]” it was 0.078 ± 0.003 s⁻¹. The kcat/Km is 82000 M⁻¹ s⁻¹ in the data set “purified protein [4]”, 550 M⁻¹ s⁻¹ in the data set “purified protein [5]”, 2300 M⁻¹ s⁻¹ in the data set “purified protein [6]” and 7100 M⁻¹ s⁻¹ in the data set “purified protein [7]”.

B2: YdiI (Escherichia coli K-12) (protein)
chain: MIWKRKITLEALNAMGEGNMVGFLDIRFEHIGDDTLEATMPVDSRTKQPFGLLHGGASVVLAESIGSVAGYLCTEGEQKVVGLEINANHVRSAREGRVRGVCKPLHLGSRHQVWQIEIFDEKGRLCCSSRLTTAIL
Regarding B2, the Km in “purified protein [8]” is 115 ± 7 µM; in the data set “purified protein [4]”, 30 ± 2 µM; in “purified protein [5]” it was 8 ± 1 µM; in “purified protein [9]”, 9 ± 1 µM; in “purified protein [10]”, 25 ± 3 µM; in “purified protein [11]”, 69.4 ± 0.4 µM. Moreover, the Km in “purified protein [12]” amounted to 120 ± 10 µM; in the data set “purified protein [13]” it was 21 ± 1 µM; in the data set “purified protein [6]”, 1.3 ± 0.1 µM; in the data set “purified protein [14]”, 2.2 ± 0.1 µM; in the data set “purified protein [7]” it was 1.5 ± 0.2 µM; in “purified protein [15]” it was 1.9 ± 0.1 µM. Besides, the kcat in the data set “purified protein [8]” was found to be 0.67 ± 0.03 s⁻¹; in “purified protein [4]”, 8.4 ± 0.2 s⁻¹; in the data set “purified protein [5]” it was 1.6 ± 0.1 s⁻¹; in “purified protein [9]”, 5.2 ± 0.2 s⁻¹; in the data set “purified protein [10]” it was 17.7 ± 0.7 s⁻¹; in “purified protein [11]” it was 0.5 ± 0.02 s⁻¹. Besides, the kcat in “purified protein [12]” was 0.21 ± 0.01 s⁻¹; in “purified protein [13]” it was 0.3 ± 0.01 s⁻¹; in the data set “purified protein [6]” it was 0.12 ± 0.01 s⁻¹; in the data set “purified protein [14]”, 0.74 ± 0.01 s⁻¹; in “purified protein [7]”, 0.62 ± 0.01 s⁻¹; in “purified protein [15]”, 0.58 ± 0.01 s⁻¹. The kcat/Km in “purified protein [8]” was 5800 M⁻¹ s⁻¹; in the data set “purified protein [4]”, 280000 M⁻¹ s⁻¹; in “purified protein [5]”, 200000 M⁻¹ s⁻¹; in “purified protein [9]”, 580000 M⁻¹ s⁻¹; in “purified protein [10]”, 710000 M⁻¹ s⁻¹; in “purified protein [11]”, 7300 M⁻¹ s⁻¹. Besides, the kcat/Km in “purified protein [12]” stood at 1700 M⁻¹ s⁻¹; in “purified protein [13]” it was 14000 M⁻¹ s⁻¹; in “purified protein [6]” it was 92000 M⁻¹ s⁻¹; in “purified protein [14]” it was 330000 M⁻¹ s⁻¹; in “purified protein [7]” it was 410000 M⁻¹ s⁻¹; in “purified protein [15]”, 300000 M⁻¹ s⁻¹.

B3: YdiI (Escherichia coli K-12; V68M) (protein)
chain: B2 chain with V68M
In the case of B3, in the data set “purified protein [16]”, the Km was 28 ± 2 µM, the kcat is 0.77 ± 0.03 s⁻¹ and the kcat/Km was 28000 M⁻¹ s⁻¹.
